The target in this experiment is T1, FcγRI (UniProt P12314 16-288, limits assumed).
T1 construct: construct not described; also called CD64; FcγRIa
Kind of experiment: BLI (Fortebio Octet), FcγRI immobilized on HIS1K sensor, antibody 3.12-50 nM, 1:1 fit. Here is the method:
1 μg/mL FcγRIa was immobilized on the HIS1K sensor for 50 s. The sensor was equilibrated in a buffer for 60 s, and the binding of the immobilized CD64 on the sensor to the antibodies at concentrations of 3.12-50 nM (two-fold dilution) was determined for 120 s. The antibody was dissociated in the buffer for 120 s. The sensor was refreshed 4 times in 10 mM glycine pH 1.5, each for 5 s. The detection temperature was 30° C. and the frequency was 0.3 Hz. The data were analyzed by 1:1 model fitting to obtain affinity constants.
For orientation: In BLI a coated tip is dipped into the sample, and binding shifts an interference pattern.

T1 sequence (P12314 16-288 limits assumed): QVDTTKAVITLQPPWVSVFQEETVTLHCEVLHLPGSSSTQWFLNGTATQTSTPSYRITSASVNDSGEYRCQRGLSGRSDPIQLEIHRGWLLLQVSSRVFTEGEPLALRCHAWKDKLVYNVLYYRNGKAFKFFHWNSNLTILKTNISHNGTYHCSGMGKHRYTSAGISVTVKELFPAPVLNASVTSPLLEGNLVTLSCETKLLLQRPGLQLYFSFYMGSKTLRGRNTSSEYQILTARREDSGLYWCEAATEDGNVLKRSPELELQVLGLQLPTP

B1: Bevacizumab (antibody, human IgG1, kappa)
heavy: not shown
light: not shown
notes: also called Avastin; anti-VEGFA monoclonal antibody
As for B1, the Kd stood at 3.68 nM.

What is called Kd is the constant that tells how readily two partners part at equilibrium. A low value points to higher affinity.

(Values after patent US20250114450A1 (AKESO BIOPHARMA, published 2025).)
